This experiment addresses T1, ROR1-protein (human, UniProt Q01973 30-403, limits assumed).
T1 construct: also called orphan tyrosine kinase receptor ROR1
In words: assay not described; monovalent binding affinity for ROR1 compared with mAb 2A2.

Where only a bound is given, the exact number is not on record here.

T1 sequence (Q01973 30-403 limits assumed): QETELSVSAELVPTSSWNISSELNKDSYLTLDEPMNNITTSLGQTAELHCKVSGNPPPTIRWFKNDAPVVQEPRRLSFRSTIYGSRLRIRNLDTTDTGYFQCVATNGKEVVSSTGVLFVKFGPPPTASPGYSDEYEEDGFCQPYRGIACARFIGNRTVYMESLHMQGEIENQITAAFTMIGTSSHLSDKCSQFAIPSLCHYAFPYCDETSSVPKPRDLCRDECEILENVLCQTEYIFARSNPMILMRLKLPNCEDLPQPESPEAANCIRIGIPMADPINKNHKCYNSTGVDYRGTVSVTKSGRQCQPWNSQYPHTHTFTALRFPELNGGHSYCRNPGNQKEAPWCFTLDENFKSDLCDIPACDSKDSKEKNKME

B1: anti-ROR1 monoclonal antibody R12 (antibody, V domains shown)
VH: QEQLVESGGRLVTPGGSLTLSCKASGFDFSAYYMSWVRQAPGKGLEWIATIYPSSGKTYYATWVNGRFTISSDNAQNTVDLQMNSLTAADRATYFCARDSYADDGALFNIWGPGTLVTISS
VL: ELVLTQSPSVSAALGSPAKITCTLSSAHKTDTIDWYQQLQGEAPRYLMQVQSDGSYTKRPGVPDRFSGSSSGADRYLIIPSVQADDEADYYCGADYIGGYVFGGGTQLTVTG
notes: also called mAb R12; R12 mAb
Regarding B1, the “fold higher monovalent binding affinity than 2A2” value was over 50 fold.

Source of the values: patent publication US20210052649A1 (FRED HUTCHINSON CANCER RESEARCH CENTER, published 2021).
